B1: Paraspeckle component 1 (Homo sapiens), Q8WXF1-1 (parent)
chain: MMLRGNLKQVRIEKNPARLRALESAVGESEPAAAAAMALALAGEPAPPAPAPPEDHPDEEMGFTIDIKSFLKPGEKTYTQRCRLFVGNLPTDITEEDFKRLFERYGEPSEVFINRDRGFGFIRLESRTLAEIAKAELDGTILKSRPLRIRFATHGAALTVKNLSPVVSNELLEQAFSQFGPVEKAVVVVDDRGRATGKGFVEFAAKPPARKALERCGDGAFLLTTTPRPVIVEPMEQFDDEDGLPEKLMQKTQQYHKEREQPPRFAQPGTFEFEYASRWKALDEMEKQQREQVDRNIREAKEKLEAEMEAARHEHQLMLMRQDLMRRQEELRRLEELRNQELQKRKQIQLRHEEEHRRREEEMIRHREQEELRRQQEGFKPNYMENREQEMRMGDMGPRGAINMGDAFSPAPAGNQGPPPMMGMNMNNRATIPGPPMGPGPAMGPEGAANMGTPMMPDNGAVHNDRFPQGPPSQMGSPMGSRTGSETPQAPMSGVGPVSGGPGGFGRGSQGGNFEGPNKRRRY
partner: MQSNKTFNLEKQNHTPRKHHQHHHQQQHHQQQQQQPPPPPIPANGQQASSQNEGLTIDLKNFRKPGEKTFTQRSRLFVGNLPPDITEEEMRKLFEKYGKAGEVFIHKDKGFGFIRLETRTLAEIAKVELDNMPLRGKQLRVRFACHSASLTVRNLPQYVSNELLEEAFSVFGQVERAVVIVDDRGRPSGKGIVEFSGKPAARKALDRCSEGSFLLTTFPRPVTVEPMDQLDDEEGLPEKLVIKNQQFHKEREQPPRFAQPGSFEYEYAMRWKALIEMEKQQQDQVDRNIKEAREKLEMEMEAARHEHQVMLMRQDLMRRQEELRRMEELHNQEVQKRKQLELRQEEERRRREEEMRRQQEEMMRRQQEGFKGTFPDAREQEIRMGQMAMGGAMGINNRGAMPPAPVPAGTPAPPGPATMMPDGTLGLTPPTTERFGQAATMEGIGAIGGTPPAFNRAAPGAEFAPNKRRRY
B2: Non-POU domain-containing octamer-binding protein (Homo sapiens), Q15233 (parent)
chain: B1 partner
partner: B1 chain

In one assay the parent is B1. Particulars: with nono_human NONO.
Take MMLRGNLKQVRIEKNPARLRALESAVGESEPAAAAAMALALAGEPAPPAPAPPEDHPDEEMGFTIDIKSFLKPGEKTYTQRCRLFVGNLPTDITEEDFKRLFERYGEPSEVFINRDRGFGFIRLESRTLAEIAKAELDGTILKSRPLRIRFATHGAALTVKNLSPVVSNELLEQAFSQFGPVEKAVVVVDDRGRATGKGFVEFAAKPPARKALERCGDGAFLLTTTPRPVIVEPMEQFDDEDGLPEKLMQKTQQYHKEREQPPRFAQPGTFEFEAASRAKALDEMEKQQREQVDRNIREAKEKLEAEMEAARHEHQLMLMRQDLMRRQEELRRLEELRNQELQKRKQIQLRHEEEHRRREEEMIRHREQEELRRQQEGFKPNYMENREQEMRMGDMGPRGAINMGDAFSPAPAGNQGPPPMMGMNMNNRATIPGPPMGPGPAMGPEGAANMGTPMMPDNGAVHNDRFPQGPPSQMGSPMGSRTGSETPQAPMSGVGPVSGGPGGFGRGSQGGNFEGPNKRRRY [Y275A;W279A]: the “effect of a mutation on the interaction” value is “decreasing interaction strength”.

In the next assay the parent is B2. Conditions: with PSPC1, Q8WXF1-1.
With MQSNKTFNLEKQNHTPRKHHQHHHQQQHHQQQQQQPPPPPIPANGQQASSQNEGLTIDLKNFRKPGEKTFTQRSRLFVGNLPPDITEEEMRKLFEKYGKAGEVFIHKDKGFGFIRLETRTLAEIAKVELDNMPLRGKQLRVRFACHSASLTVRNLPQYVSNELLEEAFSVFGQVERAVVIVDDRGRPSGKGIVEFSGKPAARKALDRCSEGSFLLTTFPRPVTVEPMDQLDDEEGLPEKLVIKNQQFHKEREQPPRFAQPGSFEYEAAMRAKALIEMEKQQQDQVDRNIKEAREKLEMEMEAARHEHQVMLMRQDLMRRQEELRRMEELHNQEVQKRKQLELRQEEERRRREEEMRRQQEEMMRRQQEGFKGTFPDAREQEIRMGQMAMGGAMGINNRGAMPPAPVPAGTPAPPGPATMMPDGTLGLTPPTTERFGQAATMEGIGAIGGTPPAFNRAAPGAEFAPNKRRRY [Y267A;W271A], the “effect of a mutation on the interaction” value is recorded as “decreasing interaction strength”.
